In paper PMC3998876:

Molecular target: biotinylated mouse Izumo1Cd4d3+4 (entire ectodomain, bait form) (mouse) (UniProt Q9D9J7)
Assay: SPR

UniProt Q9D9J7, sequence (Q9D9J7 22-319): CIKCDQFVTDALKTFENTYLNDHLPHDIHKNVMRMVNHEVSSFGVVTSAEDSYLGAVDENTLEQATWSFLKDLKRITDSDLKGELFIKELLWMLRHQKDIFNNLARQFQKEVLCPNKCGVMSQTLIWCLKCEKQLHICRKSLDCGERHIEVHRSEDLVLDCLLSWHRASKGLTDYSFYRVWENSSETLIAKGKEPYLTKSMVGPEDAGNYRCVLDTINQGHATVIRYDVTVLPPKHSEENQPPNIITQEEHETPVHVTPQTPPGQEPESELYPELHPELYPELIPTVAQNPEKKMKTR

Kd: 12 µM
Substance: mouse JunoCd4d3+4-6His (purified soluble Juno ectodomain) (from UniProt Q9EQF4 20-222) (domain or fragment)
